Reference: US8785600B2, “Anti-GCC antibody molecules and related compositions and methods” (Millennium Pharmaceuticals, Inc., priority 2009, dated 2014)

B1: 3G1: Mouse anti-GCC hybridoma mAb, IgG1,k; VH SEQ ID NO:2, VL SEQ ID NO:4 (antibody, V domains shown)
VH: QVQLKESGPGLVAPSQSLSITCTVSGFSLSRNAISWVRQPPGKGLEWLGVIWTGGGTNYNSALKSRLSIRKENSKSQVFLKMNSLQTEDTARYFCARSGYDGFDYWGQGTLVTVSA
VL: QIVLTQSPAIMSASPGEKVTMTCSASSSVNYMHWYQQKSGTSPKRWIYDTSKLASGVPARFSGSGSGTSYSLTITSMEAEDAATYYCQQWSGNPYTFGGGTKLEIK
B2: 8F1: Mouse anti-GCC hybridoma mAb, IgG1,k; VH SEQ ID NO:10, VL SEQ ID NO:12 (antibody, V domains shown)
VH: QVQLQQPGAELVKPGASVQMSCKASGYIFTGYWMYWVKQRPGQGLEWIGRIHPSDSNTNYNQKFKGKATLTVDKSSSTAYMQLSSLTSEDSAVYYCTHALAYWGQGTLVTVS
VL: DVVLTQTPLTLSITIGQPASISCKSSQSLLYSNGKTYLSWLLQRPGQSPKRLIYLVSQLDSGVPDRFTGSGSGTDFTLKISRVEAEDLGVYYCVQGTHLFTFGSGTKLEIK
B3: Abx-198: Human anti-GCC SLAM mAb, IgG1,k; VH SEQ ID NO:42, VL SEQ ID NO:44 (antibody, V domains shown)
VH: EVQLLESGGGLVQPGGSLRLSCAASGFTFSSYAMSWVRQAPGKGLDWVSDISGSGGSTYYADSVKGRFTISRDNSKNTLYLQMHSLSAEDTAIYYCAKRRWQGYFDLWGRGTLVTVSS
VL: EIVLTQSPGTLSLSPGERATLSCRARQRVDSRYLAWYQQKPGQAPRLLIYGASSRATGIPDRFSGSGSGTDFTLTISRLEPEDFAVYYCQQYGSSPLTFGGGTKVEIK

tested on: GCC 20-mer peptides (aa 1-440); assay: Epitope mapping by peptide array; assay type: binding, human; settings: 20-mer peptides with 15 aa overlap, GCC aa 1-440
Source text: Multiple strategies were initiated to identify epitopes. Peptide array. 20-mer peptides, with 15 aa overlap were generated, covering the extracellular domain (ECD) into the transmembrane domain of GCC (aa 1-440). Peptides were synthesized and provided as arrays, immobilized on glass slides. Arrays were hybridized with each of the anti-GCC antibodies to determine if linear peptides were sufficient for binding. […] The sequence, […] (SEQ ID NO:225) is spanned by these peptides. A region of overlap among the peptides is […] (SEQ ID NO:314). […] The sequence, […] (SEQ ID NO:226), and the sequence […] (SEQ ID NO:315) overlaps the two peptides.

Molecule	Peptides bound in peptide array
B1	peptides 55, 56 and 57
B2	peptides 55, 56 and 57
B3	peptides 55 and 56
